{"source": "IntAct's records for PubMed 23644599", "parents": {"B1": {"name": "mRNA decay activator protein ZFP36 (Homo sapiens), P26651 (parent)", "chain": "MDLTAIYESLLSLSPDVPVPSDHGGTESSPGWGSSGPWSLSPSDSSPSGVTSRLPGRSTSLVEGRSCGWVPPPPGFAPLAPRLGPELSPSPTSPTATSTTPSRYKTELCRTFSESGRCRYGAKCQFAHGLGELRQANRHPKYKTELCHKFYLQGRCPYGSRCHFIHNPSEDLAAPGHPPVLRQSISFSGLPSGRRTSPPPPGLAGPSLSSSSFSPSSSPPPPGDLPLSPSAFSAAPGTPLARRDPTPVCCPSCRRATPISVWGPLGGLVRTPSVQSLGSDPDEYASSGSSLGGSDSPVFEAGVFAPPQPVAAPRRLPIFNRISVSE"}}}
{"variants_of": "B1", "conditions": "with CNOT1, A5YKK6-2"}
{"variant": "F319A", "effect of a mutation on the interaction": "disrupting interaction strength"}
{"variants_of": "B1", "conditions": "with CNOT1, A5YKK6-2", "remark": "another data set of the same source"}
{"variant": "R315A", "effect of a mutation on the interaction": "disrupting interaction strength"}
